According to article PMC4183468:

Molecular target: VE-cadherin (Human CD-144, cadherin-5) (human) (UniProt P33151)
Experiment: ELISA; 0.01 µM VE-cadherin or control BSA coated on Linbro plate wells in HBSC overnight at 4°C, blocked with 1% BSA in DMEM; MBP fusions added for 1 hr; detected with anti-MBP antibody, OD655; VE-cadherin signal minus BSA and plastic binding

Chain of UniProt P33151 (P33151 48-599): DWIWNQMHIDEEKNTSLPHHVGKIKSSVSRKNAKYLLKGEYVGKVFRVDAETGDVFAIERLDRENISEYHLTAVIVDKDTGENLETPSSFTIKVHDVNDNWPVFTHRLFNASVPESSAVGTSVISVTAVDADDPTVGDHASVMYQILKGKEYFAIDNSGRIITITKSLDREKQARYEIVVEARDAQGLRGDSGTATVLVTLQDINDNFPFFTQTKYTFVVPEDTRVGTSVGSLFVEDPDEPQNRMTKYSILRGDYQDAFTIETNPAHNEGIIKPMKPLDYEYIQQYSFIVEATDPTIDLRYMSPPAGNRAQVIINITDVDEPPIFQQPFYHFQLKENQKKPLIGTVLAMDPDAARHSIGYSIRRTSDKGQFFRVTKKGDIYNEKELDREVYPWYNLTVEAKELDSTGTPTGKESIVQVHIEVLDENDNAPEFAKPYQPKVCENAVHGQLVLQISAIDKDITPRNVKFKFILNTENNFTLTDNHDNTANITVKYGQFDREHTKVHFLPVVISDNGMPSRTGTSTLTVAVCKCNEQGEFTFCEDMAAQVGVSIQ

“MBP fusion of L. interrogans candidate adhesin LIC11574 (natural protein)” gave a Kd of 7.6 nM.
“MBP fusion of L. interrogans candidate adhesin LIC13411 (natural protein)” was tested, and the Kd was 0.4 nM.
